In patent publication US20250034275A1 (CHIA TAI TIANQING PHARMACEUTICAL GROUP, published 2025):
Read-outs that look alike come from different tables or passages of the source.

What was measured:
[1] = molecular target: T1, human Trop-2-His (human, UniProt P09758 27-274, limits assumed); experiment: SPR (Biacore 8K), antibody captured, Trop-2-His as analyte
T1 construct: by analogy with the macaque construct it is probably the extracellular domain with a His tag; also called Trop-2-His protein
T1 sequence: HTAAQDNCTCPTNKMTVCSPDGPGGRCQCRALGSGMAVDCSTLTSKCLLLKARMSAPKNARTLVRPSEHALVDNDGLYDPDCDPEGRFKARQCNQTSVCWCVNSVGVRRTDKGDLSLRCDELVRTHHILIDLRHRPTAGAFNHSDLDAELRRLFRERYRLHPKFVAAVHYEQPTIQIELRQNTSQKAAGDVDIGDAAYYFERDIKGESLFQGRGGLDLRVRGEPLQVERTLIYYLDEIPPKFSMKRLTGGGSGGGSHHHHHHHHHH
In short: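 Antibody captured on anti-human IgG-coated CM5 chip; human Trop-2-His flowed as analyte with real-time association/dissociation recording, 3M MgCl₂ regeneration. Double-subtracted curves fit to Langmuir 1:1 model giving ka, kd and KD.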

[2] = molecular target: human Trop-2 (on the surface of human cell lines) (human) (UniProt P09758); experiment: flow cytometry, PC-3 cells, antibody at 3 ug/mL
[3] = molecular target: T1, human Trop-2-His; experiment: ELISA, plate-coated human Trop-2-His
[4] = molecular target: human Trop-2 (on the surface of human cell lines) (human) (UniProt P09758); experiment: flow cytometry, OVCAR-3 cells
[5] = molecular target: human Trop-2 (on the surface of human cell lines) (human) (UniProt P09758); experiment: flow cytometry, OVCAR-3 cells; remark: listed apart in the source
[6] = molecular target: human Trop-2 (on the surface of human cell lines) (human) (UniProt P09758); experiment: flow cytometry, HCC38 cells
[7] = molecular target: human Trop-2 (on the surface of human cell lines) (human) (UniProt P09758); experiment: cell-based or functional assay
[8] = molecular target: human Trop-2 (on the surface of human cell lines) (human) (UniProt P09758); experiment: flow cytometry, HCC1806 cells, antibody at 3 ug/mL
[9] = molecular target: Macaque Trop-2-His (macaque); experiment: ELISA, plate-coated macaque Trop-2-His
[10] = molecular target: human Trop-2 (on the surface of human cell lines) (human) (UniProt P09758); experiment: flow cytometry, HUVEC cells, antibody at 3 ug/mL
[11] = molecular target: human Trop-2 (on the surface of human cell lines) (human) (UniProt P09758); experiment: flow cytometry, HCC38 cells; remark: listed apart in the source
[12] = molecular target: human Trop-2 (on the surface of human cell lines) (human) (UniProt P09758); experiment: flow cytometry, Capan-1 cells, antibody at 3 ug/mL
[13] = molecular target: Macaque Trop-2-His (macaque); experiment: ELISA, plate-coated macaque Trop-2-His; remark: listed apart in the source
[14] = molecular target: human Trop-2 (on the surface of human cell lines) (human) (UniProt P09758); experiment: flow cytometry, NCI-H322 cells, antibody at 3 ug/mL
[15] = molecular target: human Trop-2 (on the surface of human cell lines) (human) (UniProt P09758); experiment: flow cytometry, HCC38 cells; remark: listed apart in the source
[16] = molecular target: human Trop-2 (on the surface of human cell lines) (human) (UniProt P09758); experiment: flow cytometry, HCC1806 cells
[17] = molecular target: human Trop-2 (on the surface of human cell lines) (human) (UniProt P09758); experiment: flow cytometry, OVCAR-3 cells, antibody at 3 ug/mL
[18] = molecular target: human Trop-2 (on the surface of human cell lines) (human) (UniProt P09758); experiment: flow cytometry, HCC38 cells, antibody at 3 ug/mL
[19] = molecular target: human Trop-2 (on the surface of human cell lines) (human) (UniProt P09758); experiment: flow cytometry, HCC1806 cells; remark: listed apart in the source
[20] = molecular target: human Trop-2 (on the surface of human cell lines) (human) (UniProt P09758); experiment: flow cytometry, HCC1806 cells; remark: listed apart in the source
[21] = molecular target: Macaque Trop-2-His (macaque); experiment: ELISA, plate-coated macaque Trop-2-His; remark: listed apart in the source

B1: TINA (antibody, INN chains, looked up, V domains shown)
VH: QVQLVQSGAEVKKPGASVKVSCKASGYTFTTAGMQWVRQAPGQGLEWMGWINTHSGVPKYAEDFKGRVTISADTSTSTAYLQLSSLKSEDTAVYYCARSGFGSSYWYFDVWGQGTLVTVSS
VL: DIQMTQSPSSLSASVGDRVTITCKASQDVSTAVAWYQQKPGKAPKLLIYSASYRYTGVPSRFSGSGSGTDFTLTISSLQPEDFAVYYCQQHYITPLTFGQGTKLEIK
Question: How did the Kd [1] turn out when B1 was run?
Answer: 12500 pM

Question: And the koff [1]?
Answer: 0.00239 s⁻¹

Question: What about the kon [1] of the same binder?
Answer: 191000 M⁻¹ s⁻¹

Question: What about the MFI [2] of the same binder?
Answer: 68500

Question: And the Positive rate (%) [2]?
Answer: 69.1%

Question: And the Ratio (MFI of TINA to MFI of the IgG1 control) [2]?
Answer: 7.7

Question: And the EC50 [3]?
Answer: 83 pM

Question: What about the EC50 ([3]; record 2) of the same binder?
Answer: 166 pM

Question: What about the EC50 [4] of the same binder?
Answer: 1280 pM

Question: What about the EC50 [5] of the same binder?
Answer: 1290 pM

Question: And the EC50 [6]?
Answer: 790 pM

Question: And the ADCC reporter (Jurkat-CD16a v158-NFAT-luciferase), target cell H322, EC50 [7]?
Answer: 270 pM

Question: And the ADCC reporter (Jurkat-CD16a v158-NFAT-luciferase), target cell HCC1806, EC50 [7]?
Answer: 460 pM

Question: What about the ADCC, PBMC killing (LDH), H322, EC50 [7] of the same binder?
Answer: 20 pM

Question: And the ADCC, PBMC killing (LDH), H322, Maximum killing (%) [7]?
Answer: 49.8%

Question: And the ADCC, PBMC killing (LDH), HCC1806, EC50 [7]?
Answer: 70 pM

Question: What about the ADCC, PBMC killing (LDH), HCC1806, Maximum killing (%) [7] of the same binder?
Answer: 38.5%

Question: What about the MFI [8] of the same binder?
Answer: 1.66e+06

Question: What about the Positive rate (%) [8] of the same binder?
Answer: 99.9%

Question: And the Ratio (MFI of TINA to MFI of the IgG1 control) [8]?
Answer: 102

Question: What about the EC50 [9] of the same binder?
Answer: 46 pM

Question: And the MFI [10]?
Answer: 125000

Question: And the Positive rate (%) [10]?
Answer: 22.9%

Question: What about the Ratio (MFI of TINA to MFI of the IgG1 control) [10] of the same binder?
Answer: 6.1

Question: What about the EC50 [11] of the same binder?
Answer: 1210 pM

Question: And the MFI [12]?
Answer: 1.21e+06

Question: What about the Positive rate (%) [12] of the same binder?
Answer: 98.4%

Question: And the Ratio (MFI of TINA to MFI of the IgG1 control) [12]?
Answer: 18.4

Question: What about the EC50 [13] of the same binder?
Answer: 63 pM

Question: What about the MFI [14] of the same binder?
Answer: 2.83e+06

Question: And the Positive rate (%) [14]?
Answer: 100%

Question: What about the Ratio (MFI of TINA to MFI of the IgG1 control) [14] of the same binder?
Answer: 133

Question: And the EC50 [15]?
Answer: 1040 pM

Question: And the EC50 [16]?
Answer: 730 pM

Question: And the MFI [17]?
Answer: 182000

Question: What about the Positive rate (%) [17] of the same binder?
Answer: 99%

Question: And the Ratio (MFI of TINA to MFI of the IgG1 control) [17]?
Answer: 15.4

Question: What about the MFI [18] of the same binder?
Answer: 3.85e+06

Question: And the Positive rate (%) [18]?
Answer: 99.3%

Question: What about the Ratio (MFI of TINA to MFI of the IgG1 control) [18] of the same binder?
Answer: 119

Question: And the EC50 [19]?
Answer: 1440 pM

Question: And the EC50 [20]?
Answer: 840 pM

Question: What about the EC50 [21] of the same binder?
Answer: 106 pM
